Results: US20030190311A1
pKd: −log10 of the molar value.

Columns and labels:
[1] = molecular target: human FcRn (human); test: BIAcore SPR, equilibrium/Scatchard, soluble FcRn over immobilized IgG1, pH 6.0, 25 C
[2] = molecular target: murine FcRn (murine); test: as above
murine FcRn (murine), sequence (chain, as listed by the source limits assumed, chain 1 of 2): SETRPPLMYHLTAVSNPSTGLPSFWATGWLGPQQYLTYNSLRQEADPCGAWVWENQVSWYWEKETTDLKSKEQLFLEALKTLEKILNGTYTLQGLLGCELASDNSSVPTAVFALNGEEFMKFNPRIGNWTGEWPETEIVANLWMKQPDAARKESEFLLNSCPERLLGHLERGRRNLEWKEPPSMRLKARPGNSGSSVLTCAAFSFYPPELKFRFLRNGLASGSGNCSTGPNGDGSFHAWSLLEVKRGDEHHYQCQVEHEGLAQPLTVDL
murine FcRn (murine), sequence (P01887 21-119 limits assumed, chain 2 of 2): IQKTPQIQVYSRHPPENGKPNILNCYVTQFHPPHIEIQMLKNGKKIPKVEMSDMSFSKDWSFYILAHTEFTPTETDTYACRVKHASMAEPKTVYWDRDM

human FcRn (human), sequence (chain, as listed by the source limits assumed, chain 1 of 2): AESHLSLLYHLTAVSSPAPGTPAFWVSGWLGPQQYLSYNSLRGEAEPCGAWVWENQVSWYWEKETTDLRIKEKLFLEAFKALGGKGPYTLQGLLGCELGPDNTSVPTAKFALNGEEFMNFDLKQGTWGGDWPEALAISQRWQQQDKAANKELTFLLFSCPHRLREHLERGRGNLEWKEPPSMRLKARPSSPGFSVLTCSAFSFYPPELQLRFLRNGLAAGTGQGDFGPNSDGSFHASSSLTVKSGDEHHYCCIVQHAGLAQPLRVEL
human FcRn (human), sequence (P61769 21-119 limits assumed, chain 2 of 2): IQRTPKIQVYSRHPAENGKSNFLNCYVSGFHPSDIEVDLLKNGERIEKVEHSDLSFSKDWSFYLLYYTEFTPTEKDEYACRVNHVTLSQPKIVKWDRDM

## wild type human IgG1 MEDI-493 (SYNAGIS) (antibody)
[1]
  pKd: 5.60
[2]
  pKd: 6.57
